The Immune Epitope Database (IEDB)

Assays:
HLA-A*68:02 = assay: IEDB peptide-MHC binding, purified MHC/competitive/fluorescence; filed as Kd, often an IC50 or EC50 that approximates it; ≥ and ≤ were set here for values at or beyond the usual limits of such assays; conditions: source organism: Salmonella enterica subsp. enterica serovar Typhi
HLA-B*48:01 = assay: IEDB peptide-MHC binding, purified MHC/direct/fluorescence; filed as Kd, often an IC50 or EC50 that approximates it; ≥ and ≤ were set here for values at or beyond the usual limits of such assays
HLA-B*15:17 [1] = assay: as above; conditions: source organism: Salmonella enterica
HLA-B*08:02 = assay: as above
HLA-B*46:01 = assay: as above
HLA-B*40:01 = assay: as above
HLA-A*11:01 = assay: as above
HLA-B*08:01 = assay: as above
HLA-B*08:03 = assay: as above
HLA-B*27:05 = assay: as above
HLA-B*15:01 = assay: as above
HLA-A*01:01 = assay: as above
HLA-B*58:01 = assay: as above
HLA-A*31:01 = assay: as above
HLA-A*03:01 = assay: as above
HLA-B*18:01 = assay: as above
HLA-B*07:02 = assay: as above
HLA-B*57:01 = assay: as above
HLA-A*02:01 [2] = assay: as above
HLA-B*44:02 = assay: as above
HLA-A*69:01 = assay: as above
HLA-B*15:09 = assay: as above
HLA-A*24:02 [3] = assay: as above
HLA-A*02:01 [4] = assay: IEDB peptide-MHC binding, purified MHC/competitive/radioactivity; ≥ and ≤ were set here for values at or beyond the usual limits of such assays
HLA-B*15:17 [5] = assay: IEDB peptide-MHC binding, purified MHC/competitive/fluorescence; filed as Kd, often an IC50 or EC50 that approximates it; ≥ and ≤ were set here for values at or beyond the usual limits of such assays; conditions: source organism: Orthohantavirus sinnombreense
HLA-A*26:01 [6] = assay: as above; conditions: source organism: Orthohantavirus sinnombreense
HLA-C*06:02 = assay: IEDB peptide-MHC binding, purified MHC/direct/fluorescence; filed as Kd, often an IC50 or EC50 that approximates it; ≥ and ≤ were set here for values at or beyond the usual limits of such assays; conditions: source organism: Orthohantavirus sinnombreense
HLA-A*02:19 = assay: as above; conditions: source organism: Limestone Canyon virus
HLA-C*03:03 = assay: as above
HLA-B*39:01 = assay: as above; conditions: source organism: Yersinia enterocolitica subsp. enterocolitica 8081
HLA-C*12:03 = assay: as above
HLA-A*29:02 = assay: IEDB peptide-MHC binding, purified MHC/competitive/radioactivity; filed as Kd, often an IC50 or EC50 that approximates it; ≥ and ≤ were set here for values at or beyond the usual limits of such assays; conditions: source organism: Lassa virus Josiah
HLA-A*23:01 = assay: as above; conditions: source organism: Lassa virus Josiah
HLA-A*24:02 [7] = assay: as above; conditions: source organism: Lassa virus Josiah
HLA-C*15:02 = assay: IEDB peptide-MHC binding, purified MHC/direct/fluorescence; filed as Kd, often an IC50 or EC50 that approximates it; ≥ and ≤ were set here for values at or beyond the usual limits of such assays; conditions: source organism: Mammarenavirus choriomeningitidis
HLA-A*26:01 [8] = assay: as above
HLA-B*35:01 = assay: as above
HLA-B*53:01 = assay: IEDB peptide-MHC binding, purified MHC/competitive/fluorescence; ≥ and ≤ were set here for values at or beyond the usual limits of such assays; conditions: source organism: Human herpesvirus 4 type 2
[9] = source organism: Salmonella enterica
[10] = source organism: Salmonella enterica subsp. enterica serovar Typhimurium str. LT2
[11] = source organism: Influenza A virus (A/Wisconsin/4755/1994(H1N1))
[12] = source organism: Influenza A virus (A/Puerto Rico/8/34/Mount Sinai(H1N1))
[13] = source organism: Orthohantavirus sinnombreense
[14] = source organism: Listeria monocytogenes serotype 4b str. H7858
[15] = source organism: Mycobacterium tuberculosis variant bovis BCG str. Pasteur 1173P2
[16] = source organism: Hepatitis B virus
[17] = source organism: Mammarenavirus lassaense
[18] = source organism: Influenza A virus (A/Turkey/MO/24093/99(H1N2))
[19] = source organism: Influenza A virus(A/swine/Henan/5/2004(H9N2))
[20] = source organism: Escherichia coli O157:H7
[21] = source organism: Escherichia coli O6
[22] = source organism: Vibrio cholerae
[23] = source organism: Vibrio cholerae RC385

NVHRSQFAQ
≥ 20 µM: Kd (HLA-A*68:02) | Kd (HLA-B*48:01; [9]) | Kd (HLA-B*15:17 [1]) | Kd (HLA-B*08:02; [10]) | Kd (HLA-B*46:01; [9]) | Kd (HLA-B*40:01; [9]) | Kd (HLA-A*11:01; [9]) | Kd (HLA-B*08:01; [10]) | Kd (HLA-B*08:03; [10]) | Kd (HLA-B*27:05; [9]) | Kd (HLA-B*15:01; [9]) | Kd (HLA-A*01:01; [9]) | Kd (HLA-B*58:01; [9]) | Kd (HLA-A*31:01; [9]) | Kd (HLA-A*03:01; [9]) | Kd (HLA-B*18:01; [9]) | Kd (HLA-B*07:02; [9]) | Kd (HLA-B*57:01; [9]) | Kd (HLA-A*02:01 [2]; [9])

YRYTYRCHR
≥ 20 µM: Kd (HLA-B*44:02; [11]) | Kd (HLA-B*46:01; [11]) | Kd (HLA-B*40:01; [11]) | Kd (HLA-A*69:01; [11]) | Kd (HLA-A*11:01; [11]) | Kd (HLA-B*08:01; [11]) | Kd (HLA-B*15:01; [11]) | Kd (HLA-B*15:09; source organism: Influenza A virus(A/swine/Shandong/fZC/2003(H9N2))) | Kd (HLA-A*01:01; [11]) | Kd (HLA-A*24:02 [3]; [11]) | Kd (HLA-A*03:01; [11]) | Kd (HLA-B*07:02; [11]) | Kd (HLA-A*02:01 [2]; [11])
0.267 µM: Kd (HLA-B*27:05; [12])
0.587 µM: Kd (HLA-B*58:01; [11])

RVASPTSGV
0.731 µM: IC50 (HLA-A*02:01 [4]; source organism: Homo sapiens)

FRYKSRCYV
0.007 µM: Kd (HLA-C*06:02)
≥ 20 µM: Kd (HLA-B*15:17 [5]) | Kd (HLA-A*26:01 [6]) | Kd (HLA-B*48:01; [13]) | Kd (HLA-B*44:02; [13]) | Kd (HLA-B*46:01; [13]) | Kd (HLA-B*40:01; [13]) | Kd (HLA-A*02:19) | Kd (HLA-B*08:01; [13]) | Kd (HLA-B*15:01; [13]) | Kd (HLA-A*01:01; [13]) | Kd (HLA-B*58:01; [13]) | Kd (HLA-A*03:01; [13]) | Kd (HLA-B*18:01; [13]) | Kd (HLA-B*07:02; [13]) | Kd (HLA-B*57:01; [13])

FHYQDPFPL
≤ 0.001 µM: Kd (HLA-B*15:09; source organism: Yersinia enterocolitica subsp. enterocolitica 8081) | Kd (HLA-B*39:01)
1.39 µM: Kd (HLA-C*03:03; source organism: Yersinia pestis Nepal516)

QMKRRILSF
0.009 µM: Kd (HLA-B*08:01; [14])
0.057 µM: Kd (HLA-B*08:02; [14])
0.095 µM: Kd (HLA-B*08:03; [14])

YVIEPAAGL
≤ 0.001 µM: Kd (HLA-C*03:03; [15])
0.023 µM: Kd (HLA-C*12:03; [15])

QLLWFHISCL
0.393 µM: IC50 (HLA-A*02:01 [4]; [16])

ILSTLPETTV
0.233 µM: IC50 (HLA-A*02:01 [4]; [16])

YLISIFLHL
0.0997 µM: Kd (HLA-A*29:02)
0.0809 µM: Kd (HLA-A*02:01 [2]; [17])
0.000422 µM: Kd (HLA-A*23:01)
≥ 20 µM: Kd (HLA-C*15:02)
0.802 µM: Kd (HLA-A*69:01; [17])
≥ 67.7 µM: Kd (HLA-A*24:02 [7])

GMQIRGFVY
1.13 µM: Kd (HLA-A*03:01; [12])
≥ 20 µM: Kd (HLA-B*44:02; [18]) | Kd (HLA-B*40:01; [18]) | Kd (HLA-A*69:01; [18]) | Kd (HLA-B*08:01; [18]) | Kd (HLA-B*27:05; [18]) | Kd (HLA-B*15:09; [19]) | Kd (HLA-A*01:01; [18]) | Kd (HLA-A*24:02 [3]; [18]) | Kd (HLA-A*26:01 [8]; [19]) | Kd (HLA-B*07:02; [18]) | Kd (HLA-A*02:01 [2]; [18])
4.75 µM: Kd (HLA-B*58:01; [18])
0.26 µM: Kd (HLA-B*15:01; [12])

FPFWGCFVS
0.002 µM: Kd (HLA-B*35:01; source organism: Rickettsia prowazekii)

FLPNDFFPSA
0.0021 µM: IC50 (HLA-A*02:01 [4]; [16])

QAYAAPQLF
0.0707 µM: IC50 (HLA-B*53:01)

AHGWSTFYL
3.15 µM: Kd (HLA-A*01:01; [21])
1.54 µM: Kd (HLA-A*69:01; [21])
2.1 µM: Kd (HLA-B*35:01; [21])
≥ 20 µM: Kd (HLA-B*44:02; [20]) | Kd (HLA-B*40:01; [20]) | Kd (HLA-A*11:01; [20]) | Kd (HLA-B*08:01; [20]) | Kd (HLA-B*27:05; [20]) | Kd (HLA-B*15:01; [20]) | Kd (HLA-B*58:01; [20]) | Kd (HLA-A*31:01; [20]) | Kd (HLA-A*03:01; [20]) | Kd (HLA-A*26:01 [8]; [20]) | Kd (HLA-B*07:02; [20]) | Kd (HLA-A*02:01 [2]; [20])

VATVNAVTV
0.018 µM: Kd (HLA-C*12:03; source organism: Leishmania major strain Friedlin)

GLRWHVRAF
≥ 20 µM: Kd (HLA-B*44:02; [22]) | Kd (HLA-B*40:01; [22]) | Kd (HLA-A*69:01; [22]) | Kd (HLA-A*11:01; [22]) | Kd (HLA-B*27:05; [22]) | Kd (HLA-B*15:09; [23]) | Kd (HLA-A*01:01; [22]) | Kd (HLA-B*58:01; [22]) | Kd (HLA-A*24:02 [3]; [22]) | Kd (HLA-A*31:01; [22]) | Kd (HLA-A*03:01; [22]) | Kd (HLA-A*26:01 [8]; [23]) | Kd (HLA-A*02:01 [2]; [22])
0.407 µM: Kd (HLA-B*07:02; [22])
0.0794 µM: Kd (HLA-B*15:01; [22])
